Drawing on paper PMC10691330, this text covers percent reduction of virion-associated CYPA by 1 µM CsA for 1 substance.

What all share (assay): packaging into virions
For assay [1], the target named is HIV-1 M capsid protein (p24) (HIV-1 group M).
Assay [2] addresses HIV-1 N capsid protein (p24) (HIV-1 group N).
Assay [3] deals with HIV-1 O capsid protein (p24) (HIV-1 group O).
The target in assay [4] is HIV-1 P capsid protein (p24) (HIV-1 group P).

Sequence of HA-tagged cyclophilin A (CYPA-HA) (P62937 whole entry): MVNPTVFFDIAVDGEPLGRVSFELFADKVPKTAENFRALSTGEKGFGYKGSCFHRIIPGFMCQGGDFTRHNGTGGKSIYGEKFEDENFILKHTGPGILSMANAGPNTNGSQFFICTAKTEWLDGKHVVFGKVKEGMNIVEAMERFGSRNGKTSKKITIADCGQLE

Turning to “HA-tagged cyclophilin A (CYPA-HA) (from UniProt P62937 1-165) (natural protein)”, the percent reduction of virion-associated CYPA by 1 µM CsA in assay [1] amounted to 40%; in assay [2], 70%; in assay [3], 70%; in assay [4], 70%.
